This is an account of results in patent publication US20160051654A1 (IMMATICS BIOTECHNOLOGIES, published 2016).

Experiment [1] has as its target T1, HLA-A*0201 (recombinant HLA-A*0201 heavy chain with human beta-2 microglobulin) (human). Description: EpI ELISA: refolding of recombinant HLA-A*0201 with b2m and graded peptide.
The target of experiment [2] is T1, HLA-A*0201 (recombinant HLA-A*0201 …). Kind of experiment: ELISA-based refolding assay: recombinant HLA-A*0201, b2m and graded peptide. Background: An ELISA detects its analyte on a solid surface through an enzyme-linked reagent.

Ends that are not written are not given here.

As to KIFDEILVNA (also called IMA-TOP-001) [TOP-001], the binding result in experiment [1] was “binds”.

In the case of ALFVRLLALA (also called IMA-TGFBI-001) [TGFBI-001], in experiment [1], the “fold lower KD compared with the majority of peptides” value was 100 fold. Turning to KLTDIQIEL [JAK-001], the binding result in experiment [2] is reported as “binds”. For KLGDFGLATVV [DCA-001], the binding result in experiment [2] is “binds”. For the molecule ALSNLEVTL (also: acetate salt, also called IMA-C20-001) [C20-001], in experiment [1], the binding result is “binds”. Take KLMDLDVEQL (also called IMA-PCN-001) [PCN-001]: the binding result in experiment [1] is given as “binds”.

For the molecule ILAPVILYI (also called IMA-NOX-001) [NOX-001], the binding result in experiment [1] is given as “binds”.
